Experimental findings from US20190022179A1 (B G NEGEV TECHNOLOGIES AND APPLICATIONS, published 2019) are described below.

Assay [1] addresses T1, recombinant human SOD1^WT, 6His-tagged (N-term), expressed in E. coli (human, UniProt P00441 2-154, in the MST assay labeled with BLUE fluorescent dye NT-495-NHS (lysine chemistry)).
T1 construct: also called wild type SOD1; not shown: N-terminal 6His tag from pHIS1 vector
Nature of the assay: MST fluorescence change, labeled SOD1^WT 200 nM.

Assay [2] deals with T2, recombinant human SOD1^G93A, 6His-tagged (N-term), expressed in E. coli (human, UniProt P00441 2-154, G93A, in the MST assay labeled with BLUE fluorescent dye NT-495-NHS (lysine chemistry)).
T2 construct: Dimer by gel filtration, partially monomerizes and precipitates at 37 C; also called SOD1M; not shown: N-terminal 6His tag from pHIS1 vector
T2 sequence (P00441 2-154 G94A): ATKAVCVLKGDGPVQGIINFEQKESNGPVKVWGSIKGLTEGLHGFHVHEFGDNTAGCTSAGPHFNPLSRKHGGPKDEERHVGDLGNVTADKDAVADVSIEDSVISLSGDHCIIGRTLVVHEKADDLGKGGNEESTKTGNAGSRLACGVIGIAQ
In words: MST instrument, fluorescence change of labeled SOD1^G93A (300 nM), peptide 0-100 µM.

The target in assay [3] is T1, recombinant human SOD1^WT, 6His-tagged …. In words: MST instrument, fluorescence change of labeled SOD1^WT (200 nM), peptide 0-100 µM.
Protocol: Fluorescently labeled recombinant SOD1G93A (300 nM) (FIG. 3A) or SOD1^WT (200 nM) (FIG. 3B) were incubated for 1.5 h at r.t. with increasing concentrations of a peptide, and the fluorescence was measured using an MST instrument (NanoTemper). […] The curves represent the non-linear regression analyses of the data using a logistic (three parameters) function. The results are expressed as the mean±S.D. of at least three independent experiments.
The assessment of peptide binding to the proteins was carried out using Monolith NT.115 (NanoTemper Technologies, Munchen, Germany). […] The final concentration of either DMSO or DMF in the binding buffer was 1%. […] The binding data were analyzed by a non-linear regression using a logistic (three parameter) function implemented in Prism6 (GraphPad) program.
The binding of synthetic peptides to fluorescently labeled SOD1^WT or SOD1^G93A was assessed using a microscale thermophoresis technique (MST).

T1 sequence (P00441 2-154): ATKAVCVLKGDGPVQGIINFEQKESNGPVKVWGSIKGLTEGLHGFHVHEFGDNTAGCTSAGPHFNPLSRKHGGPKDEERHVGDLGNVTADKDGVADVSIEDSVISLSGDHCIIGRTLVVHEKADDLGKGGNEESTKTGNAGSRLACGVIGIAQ

B1: peptide SE-11 (SOD1 aa. 90-109) (peptide)
peptide: DKDGVADVSIEDSVISLSGD
notes: Synthesized by GL Biochem; purity >90%
In the case of B1, the binding result in assay [1] is given as “no binding (tested: peptide 0-100 µM)”; in assay [2] it was “binds”.

B2: peptide SE-12 (SOD1 aa. 106-125) (peptide)
peptide: LSGDHCIIGRTLVVHEKADD
notes: as for B1
For B2, the binding result in assay [3] and in assay [2] was “binds” each time.
